Data published in patent publication US11473089B2, “Aptamer for ADAMTS5 and use for aptamer for ADAMTS5” (RIBOMIC INC., priority 2017, dated 2022).

T1: ADAMTS5 (Homo sapiens, UniProt Q9UNA0)
T1 construct: purchased R&D systems
T1 sequence (Q9UNA0 262-930): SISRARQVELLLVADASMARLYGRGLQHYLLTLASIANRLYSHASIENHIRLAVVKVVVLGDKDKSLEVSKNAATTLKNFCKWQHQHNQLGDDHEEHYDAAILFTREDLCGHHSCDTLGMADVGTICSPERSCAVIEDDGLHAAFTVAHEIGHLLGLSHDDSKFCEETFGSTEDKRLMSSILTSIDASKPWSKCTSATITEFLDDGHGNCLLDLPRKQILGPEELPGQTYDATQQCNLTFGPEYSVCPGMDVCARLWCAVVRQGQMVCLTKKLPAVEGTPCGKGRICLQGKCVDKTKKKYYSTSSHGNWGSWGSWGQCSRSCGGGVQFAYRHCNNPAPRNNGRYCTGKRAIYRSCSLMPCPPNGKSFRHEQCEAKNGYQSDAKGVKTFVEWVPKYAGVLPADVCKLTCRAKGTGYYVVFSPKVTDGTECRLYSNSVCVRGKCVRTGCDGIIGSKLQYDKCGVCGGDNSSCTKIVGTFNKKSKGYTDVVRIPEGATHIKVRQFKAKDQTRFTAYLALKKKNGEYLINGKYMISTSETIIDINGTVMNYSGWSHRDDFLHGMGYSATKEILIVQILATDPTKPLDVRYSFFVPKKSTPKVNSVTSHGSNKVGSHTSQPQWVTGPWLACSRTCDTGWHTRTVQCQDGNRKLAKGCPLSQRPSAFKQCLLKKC


Key:
[1] = biological target: T1, ADAMTS5; experiment: binding activity to ADAMTS5 by surface plasmon resonance (Biacore T100); details: Table 7
Experimental: The binding activity of aptamers having the nucleotide sequences shown in SEQ ID NOs: 1 and 2 to ADAMTS5 was evaluated by the surface plasmon resonance method. Biacore T100 manufactured by GE Healthcare was used for the measurement. The SA chip was used as the sensor chip, which had streptavidin immobilized thereon. About 800 RU of a 16-nucleotide Poly dT with biotin at the 5′-terminal was bound on the chip. […] ADAMTS5 for analyte was prepared at 0.1 μM, and injected at a flow rate of 30 μL/min for 60 sec. As the running buffer, solution C was used. The solution C is a mixed solution of 300 mM sodium chloride, 5.4 mM potassium chloride, 1.8 mM calcium chloride, 0.8 mM magnesium chloride, 20 mM tris (pH 7.6), and 0.05% Tween20.
SEQ ID NO: 2 has a sequence with one base deletion from the continuous 4 G bases in the consensus sequence, and it was shown from the measurement results of the binding activity that the continuous 4 G bases in the consensus sequence are important for the activity of aptamers. Sensorgram showing the binding of an aptamer having the nucleotide sequence shown in SEQ ID NO: 1 to ADAMTS5 is presented in FIG. 2. In Table 1, “++” indicates those with the proportion of ADAMTS5 binding amount (RU value) to the amount of aptamer immobilized on the SA chip (RU value) of not less than 40%, “+” indicates those with the proportion of not less than 10% and less than 40%, and “−” indicates those with the proportion of less than 10%.
The binding activity and enzyme inhibitory activity of aptamers having nucleotide sequences shown in SEQ ID NOs: 16-25 to ADAMTS5 were measured. The binding activity was evaluated by the surface plasmon resonance method. For the measurement, a method similar to that in Example 1 was used. The enzyme inhibitory activity was measured by a method similar to that in Example 1. […] The negative control nucleic acid refers to the nucleic acid pool used in the first round of the SELEX method. The “++” indicates those with the proportion of ADAMTS5 binding amount (RU value) to the amount of aptamer immobilized on the SA chip (RU value) of not less than 40%, and “+” indicates those with the proportion of less than 40%. […] “n.d.” means not determined.
The binding activity of the nucleic acids shown in SEQ ID NOs: 30-45 to ADAMTS5 was measured. The binding activity was evaluated by the surface plasmon resonance method. In the Table, “++” indicates those with the proportion of ADAMTS5 binding amount (RU value) to the amount of aptamer immobilized on the SA chip (RU value) of not less than 40%, “+” indicates those with the proportion of not less than 10% and less than 40%, and “−” indicates those with the proportion of less than 10%.

[2] = biological target: T1, ADAMTS5; experiment: ADAMTS5 enzyme inhibition, aggrecan G1-IGD-G2 cleavage, SDS-PAGE detection (evaluation method 1); type: biochemical
Experimental: Whether an aptamer having the nucleotide sequence shown in SEQ ID NO: 1 inhibits the enzyme activity of ADAMTS5 was evaluated by the following method. As a substrate of ADAMTS5, the G1-IGD-G2 domain of aggrecan (manufactured by R&D systems) was used. ADAMTS5 specifically cleaves in between the 392nd glutamic acid and the 393rd alanine in the G1-IGD-G2 domain and produces two fragments. These fragments have faster electrophoretic mobility than uncleaved G1-IGD-G2. Thus, the enzyme activity of ADAMTS5 can be measured by quantifying the band intensity of G1-IGD-G2 by SDS-PAGE electrophoresis. The assay was performed in a solution A buffer with a reaction mixture volume of 10 μL. First, a mixture (10 μL) of a nucleic acid and ADAMTS5 was prepared and incubated at 25° C. for 15 min. To a substrate solution (5 μL) diluted with solution A was added a mixture (5 μL) of the nucleic acid and ADAMTS5 to start the enzyme reaction. The final concentration of ADAMTS5 in the reaction solution was 5 nM, and the final substrate concentration was 50 μg/mL. The reaction solution was incubated at 37° C. for 2 hr, 2 μL of solution D was added, and the mixture was heated at 95° C. for 2 min to stop the enzyme reaction of ADAMTS5. Solution D contains 0.25 M tris (pH 6.8), 10% SDS, 50% glycerol, 0.25% bromo phenolblue, and 20% 2-mercaptoethanol. The heat-treated reaction solution was electrophoresed by 7.5% SDS-PAGE and stained with SYPRO Orange (manufactured by Sigma-Aldrich). The staining was performed according to the manual of Sigma-Aldrich and detected using STORM840 manufactured by GE Healthcare. For analytical curves, uncleaved substrates 1000 ng, 400 ng, 160 ng, 64 ng, 25.6 ng, 10.24 ng, and 4.1 ng were electrophoresed, and staining and detection were performed in the same manner. The amount of uncleaved substrate in each reaction solution was quantified from the band intensity and the standard curve. The substrate cleavage efficiency of ADAMTS5 under these reaction conditions was 80-100%. The inhibition rate of the test substance was calculated using the following equation. inhibition rate (%)=(Sapt−SE)/(S0−SE)×100 wherein Sapt is the amount of an uncleaved substrate with the addition of a test substance, SE is the residual amount of an uncleaved substrate with the addition of ADAMTS5, and S0 is the residual amount of an uncleaved substrate without the addition of ADAMTS5.
The concentration of an inhibitor necessary for inhibiting 50% of the enzyme activity (IC50) was determined. IC50 is a mean of four measurements.

Molecule	binding activity [1]	inhibitory activity % 10 nM aptamer ([2]; Table 7) [%]	inhibitory activity % 30 nM aptamer ([2]; Table 7) [%]	inhibitory activity % 20 nM aptamer ([2]; Table 7, 20 nM aptamer) [%]	inhibitory activity % 30 nM aptamer ([2]; Table 8) [%]
19 (nucleic acid, aptamer; 2'-fluoro at CU, RNA at AG, backbone not given here) GGGACAUGCGUAACUUGAUAGGGGCCUCCACAGCUGAUAAGCUUGGACUCAAACCAUCAAGUCCAGAUCGAGCA	+ (proportion of less than 40%)	2.9	93.5	–	–
17 (nucleic acid, aptamer; 2'-fluoro at CU, RNA at AG, backbone not given here) GGGACAUGCGUAACUGUAUAGGGGCCUCCACAGCUGAAAAGCUUGGACUCAAACCAUACAGUCCAGAUCGAGCA	+ (proportion of less than 40%)	12.3	88.2	–	–
18 (nucleic acid, aptamer; 2'-fluoro at CU, RNA at AG, backbone not given here) GGGACAUGCGUAACUGCAUCGGGGCCUCCGCAGCUGUUAAGCUCGGACUCAAACCAUGCAGUCCAGAUCGAGCA	+ (proportion of less than 40%)	2.9	90.4	–	–
16 (nucleic acid, aptamer; 2'-fluoro at CU, RNA at AG, backbone not given here) GGGACAUGCGUAACUUGAUAGGGGCCUCCGCAGCUGAUCAGCUCGGACUCAAACCAUCAAGUCCAGAUCGAGCA	+ (proportion of less than 40%)	46.3	93.6	–	–
23 (nucleic acid, aptamer; 2'-fluoro at CU, RNA at AG, backbone not given here) GGGACAUGCGUAACUGUAUAGGGGCCUCCACAGCUGAAAAGCUUGGACUCAAACCAUACAGUCCAGAUCGAGCA	++ (proportion of ADAMTS5 binding amount (RU value) to the amount of aptamer immobilized on the SA chip (RU value) of not less than 40%)	14.5	–	–	–
24 (nucleic acid, aptamer; 2'-fluoro at CU, RNA at AG, backbone not given here) GGGACAUGCGUAACUUGAUAGGGGCCUCCACAGCCGGUAGGCUUGGACUCAAACCAUCAAGUCCAGAUCGAGCA	++ (proportion of ADAMTS5 binding amount (RU value) to the amount of aptamer immobilized on the SA chip (RU value) of not less than 40%)	20.2	–	–	–
25 (nucleic acid, aptamer; 2'-fluoro at CU, RNA at AG, backbone not given here) GGGACAUGCGUAACUGCAUAGGGGCCUCCACAGCUAUUCAGCUUGGACACAAACCAUGCAGUCCAGAUCGAGCA	++ (proportion of ADAMTS5 binding amount (RU value) to the amount of aptamer immobilized on the SA chip (RU value) of not less than 40%)	–	–	72.1	–
22 (nucleic acid, aptamer; 2'-fluoro at CU, RNA at AG, backbone not given here) GGGACAUGCGUAACUGCAUAGGGGCCUCCACAGCUAUUCAGCUUGGACACAAACCAUGCAGUCCAGAUCGAGCA	++ (proportion of ADAMTS5 binding amount (RU value) to the amount of aptamer immobilized on the SA chip (RU value) of not less than 40%)	14.8	–	–	–
20 (nucleic acid, aptamer; 2'-fluoro at CU, RNA at AG, backbone not given here) GGGACAUGCGUAACUGUAUAGGGGCCUCCGCAGCUAUUCAGCUCGGACAUAAACCAUACAGUCCAGAUCGAGCA	+ (proportion of less than 40%)	15.5	111.1	–	–
21 (nucleic acid, 2'-fluoro at CU, RNA at AG, backbone not given here) GGGACAUGCGUAACUAUAUAGGGGCCUCCACAGCUGUAAAGCUUGGACUUAAACCAUAUAGAGUCCAGAUCGAGCA	++ (proportion of ADAMTS5 binding amount (RU value) to the amount of aptamer immobilized on the SA chip (RU value) of not less than 40%)	56.9	–	–	78.8
